In the DeepSol protein solubility set:

Test: soluble on expression in E. coli; label from the status in PepcDB or PDB records

Sequence | soluble on expression in E. coli
MGSDKIHHHHHHMDLKEKILDYKDEVVKEIQNAVRVKSVKEAPLPGMPFGEGPAKALDHFMDLAKKLGFKAEKFDNYAMHIDMGEGKETLGILAHVDVVPEGDNWTYPPYSGTIADGKIFGRGTLDDKGPAIISLFAMKAIADSGVKLNKKIRMILGADEESGSACLKYYFGELKMPYPDIAFTPDSSFPVTYAEKGSVRVKIKKKFNTLQDLVIKGGNAFNSVPNEANGVIPVDMLGEVRNKNKVEFEREGNTYKVFSAGIPAHGAYPSKGYNAVSALFEVLKDIEVKNEELKGLVTFFDKFVKMETDGKSFGVKCTDGETGELTLNLGKINLENNELEIWIDMRIPVKVKNEQIIETIKENTEDYGYEFLLHSNTQPLYVAKDSFLVSTLMNIYKELTGDNDAEPVAIGGGTYAKYAKNAVAFGALLPDQEDRMHQRDEYLEISKIDKLLQIYVEAIYRLAK | not soluble
MSSECDGGSKAVMNGLAPGSNGQDKDMDPTKICTGKGAVTLRASSSYRETPSSSPASPQETRQHESKPGLEPEPSSADEWRLSSSADANGNAQPSSLAAKGYRSVHPNLPSDKSQDSSPLLNEVSSSLIGTDSQAFPSVSKPSSAYPSTTIVNPTIVLLQHNREQQKRLSSLSDPVSERRVGEQDSAPTQEKPTSPGKAIEKRAKDDSRRVVKSTQDLSDVSMDEVGIPLRNTERSKDWYKTMFKQIHKLNRDDDSDLYSPRYSFSEDTKSPLSVPRSKSEMSYIDGEKVVKRSATLPLPARSSSLKSSSERNDWEPPDKKVDTRKYRAEPKSIYEYQPGKSSVLTNEKMSRDISPEEIDLKNEPWYKFFSELEFGKPTNLDKDLSLCQTELEADLEKMETLNKAPSANVPQSSAISPTPEISSETPGYIYSSNFHAVKRESDGAPGDLTSLENERQIYKSVLEGGDIPLQGLSGLKRPSSSASTKVHSRTFNTSNALGPVCKHKKPLSAAKACISEILPSKFKPRLSAPSALLQEQKSILLPSEKAQSCENLCVSGSLNDSKRGLPLQVGGSIENLLMRSRRDYDSKSSSTMSLQEYSTSGRRPCPLSRKAGMQFTMLYRDMHQINRSGLFLGSISSSSSVRDLASHFEKSSLALSRGELGPSQEGSEHIPKHTVSSRITAFEQLIQRSRSMPSLDLSGRLSKSPTPVLSRGSLTSARSAESLLESTKLHPKEMDGMNSSGVYASPTCSNMAHHALSFRGLVPSEPLSTCSDDVDRCSNISTDSREGSGGSVHGDFPKHRLNKCKGTCPASYTRFTTIRKHEQQQTSRQPEWRLDARGDKSTLLRNIYLMSPLPFRLKKPLHHHPRQPSPGDSSGLLVGQKPDLPSQPHQDQPPSGGKPVVPTRLSSRHTMARLSRSSEPSQERPTALEDYPRAINNGNSVPYSDHSLDRNNNPQSELAPSRGDSESPRHFIPADYLESTEEFIRRRHDDKEMRPARAKFDFKAQTLKELPLQKGDIVYIYKQIDQNWYEGEHHGRVGIFPRTYIELLPPAEKAQPKKLTPVQVLEYGEAIAKFNFNGDTQVEMSFRKGERITLLRQVDENWYEGRIPGTSRQGIFPITYVDVIKRPLVKNPVDYMDLPFSSSPSRSATASPQQPQAQQRRVTPDRSQTSQDLFSYQALYSYIPQNDDELELRDGDIVDVMEKCDDGWFVGTSRRTKQFGTFPGNYVKPLYL | soluble
MGSDKIHHHHHHMQPTYNIDNPNLSYEAKRDLWRIGFGLQKVDNLVPSAYMESLAEKQSRGELTYEQVYEDATAYHHTIDASTEEADLVSLRIVELLSRRGFSFSPAILLAIHKELFQDIFEPSIPVGQFRQTNITKNEPVLNGESVVYSDYSMIQMTLDYDFNQEKQVAYATLTQADMVKKIQHFISGIWQIHPFREGNTRTVTVFLIQYLREFGFDIDNTPFQQHSKYFRDALVLDNAKILQRRPEFLTAFFENLLLGGQNDLSSEKMYLDLDLDLS | not soluble
SMAAAAVVQIPAGATFLETFKKSFVDVPIDAEKGNAISTAEFLEAAESLTTMFDVLGSIAFSPVKTDMLGNVEKIRKRMLAAPLESQNIQDLVRNELKTKSHTATEGLLWLVRGLEFTCIALSKNIGSTEELADSFRGSYRVTLKPHHSFLVKPIFSAAMSACPYRKDFYAKLGDDEQKVQEELREYLVALDKIVNILKRFLESKEAKW | soluble
MTFQETISAYIQERYQITPDFPFKKHPDYLVFRHPRNAKWFALIMPLDAQLLGATENKQLTILTVKLAPELIALLKNQPGYFPAYHMNKEHWLSLSEEIPLSQVFSFIDESYQRSY | not soluble
MTVNKITYQNLQEEVYKLTLESGLNVYLIPKPSFKETVGVLTANFGSLHTKYTRNGCVEHYPAGIAHFLEHKLFELDKGQDAATQFTKYGAESNAFTTFDKTSFYFSTISHITNCLDILLDFVLTTNFTEESITKEKDIIKQEIEMYQDDPEYRLYQGVLSNLYPNSPLAFDIAGDYQSISQITLTDLQENHKDFYQLSNMNLVLVGQFSPQEIITYLQKNSHFTSYSQNIDRDSISLEPVIKNNSCHMTVTKPKLAIGYRKSNHMIHGSYLKEKIGLQLFFAMLLGWTSTINQDWYESGQIDDSFDIEIEVHPDFECVIISLDTTEPIAFSTQLRLLLKNALQSSDLTESHLKNVKRELYGDFLRSLDSIENLAMQFVTYLYDGKTMYLDLPSIVEELDLEDVITIGKDFLDNADTSDFVIFPKSS | not soluble
MSRRVEFDLSTEDHSDRRRTNTFSSDEDGVPNEVADYLVYFSRMVDEQNVPEILTLYDQAFPDLTERFFRDRMWPDENVVERIIGPGNKLFIILYKELYYRQLYARNTRGPLLVHRYESFMNYQELFSELLSSKDPIPLSLPNVWLWDIIDEFVYQFQAFCLYKANPGKRNADEVEDLINIEENQNAWNIYPVLNILYSLLSKSQIVEQLKALKEKRNPDSVADEFGQSDLYFKLGYFALIGLLRTHVLLGDYHQALKTVQYVDIDPKGIYNTVPTCLVTLHYFVGFSHLMMRNYGEATKMFVNCLLYIQRTKSVQNQQPSKKNFQYDVIGKTWDQLFHLLAICLAIQPQRIDESIASQLSERCGERMMHMANGNIDEFRNAFATGCPKFLSPTTVVYEGVNQSKEPLLRQTQSFLEGIESQMALPVLRGYLKLYTTLPTKKLASFMDVDDEHYDSFIGKLLTYKMIVNELGKEAGPSSADDDEPQTDIDFYVDRDMINIADTKVARHVGEHFIRHIQKLQEVQDVLKRLDIQKP | not soluble
MTRGRVIQVMGPVVDVKFENGHLPAIYNALKIQHKARNENEVDIDLTLEVALHLGDDTVRTIAMASTDGLIRGMEVIDTGAPISVPVGQVTLGRVFNVLGEPIDLEGDIPADARRDPIHRPAPKFEELATEVEILETGIKVVDLLAPYIKGGKIGLFGGAGVGKTVLIQELIHNIAQEHGGISVFAGVGERTREGNDLYHEMKDSGVISKTAMVFGQMNEPPGARMRVALTGLTMAEYFRDEQGQDGLLFIDNIFRFTQAGSEVSALLGRMPSAIGYQPTLATEMGQLQERITSTAKGSITSIQAIYVPADDYTDPAPATTFSHLDATTNLERKLAEMGIYPAVDPLVSTSRALAPEIVGEEHYQVARKVQQTLERYKELQDIIAILGMDELSDEDKLVVHRARRIQFFLSQNFHVAEQFTGQPGSYVPVKETVRGFKEILEGKYDHLPEDRFRLVGRIEEVVEKAKAMGVEV | soluble
MTKPMIQIALDQTNLTDAVAVASNVASYVDVIEVGTILAFAEGMKAVSTLRHNHPNHILVCDMKTTDGGAILSRMAFEAGADWITVSAAAHIATIAACKKVADELNGEIQIEIYGNWTMQDAKAWVDLGITQAIYHRSRDAELAGIGWTTDDLDKMRQLSALGIELSITGGIVPEDIYLFEGIKTKTFIAGRALAGAEGQQTAAALREQIDRFWP | not soluble
SESKKRELFSQIKDLKGTSGNVALLELGCGTGANFQFYPQGCKVTCVDPNPNFEKFLTKSMAENRHLQYERFIVAYGENMKQLADSSMDVVVCTLVLCSVQSPRKVLQEVQRVLRPGGLLFFWEHVAEPQGSRAFLWQRVLEPTWKHIGDGCHLTRETWKDIERAQFSEVQLEWQPPPFRWLPVGPHIMGKAVK | soluble
MGSDKIHHHHHHAVNCYVGNYYRADSIAEAAIDSDREVAVTIEKKDKRIQATQYDLKLKNYTITFAPQDKEKATKALIFYPGGRVQYTAYAPLMHELAKNNFVCILVHMPGNLAVLDQNAADGIIEKYKEIYPSIQEWYMGGHSLGGAMAAEYVAKHVDEFDGLYLFAAYSTADLSDSDLRVFSVYGSEDGVLDMDKYRKYRSNLPEDTYEYVIDGGCHSYFGSYGLQKGDGTPDVAFEEQIEMTVDFITYNSK | not soluble
MKAMNKVWVIGDASVDLVPEKQNSYLKCPGGASANVGVCVARLGGECGFIGCLGDDDAGRFLRQVFQDNGVDVTFLRLDADLTSAVLIVNLTADGERSFTYLVHPGADTYVSPQDLPPFRQYEWFYFSSIGLTDRPAREACLEGARRMREAGGYVLFDVNLRSKMWGNTDEIPELIARSAALASICKVSADELCQLSGASHWQDARYYLRDLGCDTTIISLGADGALLITAEGEFHFPAPRVDVVDTTGAGDAFVGGLLFTLSRANCWDHALLAEAISNANACGAMAVTAKGAMTALPFPDQLNTFLSSHSLAQAMTVK | not soluble
MGSDKIHHHHHHMSKKQFLDQLWARMAQKGDFPTLQYCIDNVFKTLNSDLSVGEMASTVLSDFSLSQKVIRLANSAMYRSFGGEVTTVSRAIMVLGVDTITHLTLGVQVLDFFQGVAPNRPQAARALKQAIMAGEITRALNDARGILGGEEGVVCTLMHHVSRLLVIFYFPDEWDRIMALSADGAMSENDACREVIDISLDDLAKAAAFRWRLPALIADGMLGRELHEETVLETHADWLGAVASLSSDAAASILAEQPEEVVLEPLLTHAQKLGLEPSHVNVAIQQAGTLKASMARSEAPDTGVGSLPDDGGKPADTLTRLQQALAEIRQEGAGMTVSQLAPLVLESAMRALNFSHCFLMLLHPTNKRFGARLGFGEGMRDKLEKLSFEEGFVPDVFHFAMIAPKPLLIEDLRDKAVSHRVPRWYRDAMPDTRSVLLIPVKVRNRCVAMICGDWGATRIAGGLTDGELIAAGDLAGEIATAVLRSAPQR | not soluble
MDSDHNHINGDLAHGFENMVCVRCNDGFSMQDQMVNSSGQVWHSECFVCAQCFEPFPDGIYFEYEGRKYCEHDFHVLFSPCCGKCNEFIVGRVIKAMNASWHPGCFCCEICNKQLADVGFLRNAGRALCRECNEREKAAGHGRYVCHKCHAMIDDGQHIKFRGDSFHPYHFKCKRCNNELTTASREVNGELYCLRCHDTMGIPICGACHRPIEERVIAALGKHWHVEHFVCSVCEKPFLGHRHYERKGLPYCEQHFHKLFGNLCFKCGDPCCGEVFQALQKTWCVKCFSCSFCDKKLDQKTKFYEFDMKPTCKRCYDRFPTELKKRISESLKDRDVENQRRSMSPGPK | not soluble
MRGSHHHHHHGSESETLTAKATITTTTLPSHDETKTESTEFEKNQKRYQDLISTFPHEKGWRPKEPLIEYGGYWWLPSLLEGCIHAQEFFQARPSDFLVCSYPKTGTTWLKALTFAIANRSRFDDSSNPLLKRNPHEFVPYIEIDFPFFPEVDVLKDKGNTLFSTHIPYELLPDSVVKSGCKMVYIWREPKDTFISMWTFLHKERTELGPVSNLEESFDMFCRGLSGYGPYLNHILAYWKAYQENPDRILFLKYETMRADPLPYVKSLAEFMGHGFTAEEEEKGVVEKVVNLCSFETLKNLEANKGEKDREDRPGVYANSAYFRKGKVGDWSNYLTPEMAARIDGLMEEKFKGTGLLEHGKKLN | soluble
METNFIGDDYGPLFHYQYRLIVIGDSTVGKSSLLRYFTEGKMAEISDPTVGVDFYARMIELRPGYRVKLQLWDTAGQEKFRSITKSYYRNSVGVLAIYDTTNRESFEHVENWVKEAALNLGGPSPSKCVFQLVGTKSDMDSQRQVNYEEGEYFAKYHKMKFIETSSRTGDNVNEAFHMIAQEIQNRVDDGELRPVDGWEGLKTGIMRSQSVCLSERSFPQNSSAGACGC | not soluble
MRRRENMDVNKAIRTAVDTGKVILGSKRTIKFVKHGEGKLVVLAGNIPKDLEEDVKYYAKLSNIPVYQHKITSLELGAVCGKPFPVAALLVLDEGLSNIMELVEKKEGGE | soluble
